The record followed here is patent US20150197757, “OXYGEN-RESPONSIVE BACTERIAL GENE SWITCH” (Wisconsin Alumni Research Foundation, published 2015).

Series [1] concerns the target T1, ArcA (chromosomal) (Escherichia coli, UniProt P0A9Q1 P0A9Q1:1-238).
T1 sequence: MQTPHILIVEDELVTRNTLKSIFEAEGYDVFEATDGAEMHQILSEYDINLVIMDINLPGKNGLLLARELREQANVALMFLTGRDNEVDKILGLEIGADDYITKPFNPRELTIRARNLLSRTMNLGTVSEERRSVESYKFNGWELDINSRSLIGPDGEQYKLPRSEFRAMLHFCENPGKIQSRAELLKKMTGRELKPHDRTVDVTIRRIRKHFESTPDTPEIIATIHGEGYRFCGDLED
The experiment in a line: cell_activity; anaerobic lacZ fusion; repression largely relieved with O2. On the procedure: (§1) Strains containing P1icdA-lacZ were grown in minimal media with 0.2% glucose. Fold repression was calculated by dividing the β-galactosidase activity of a ΔarcA strain (e.g., 803 Miller units for wt P1icdA-lacZ without O₂) by the activity of an arcA⁺ strain (e.g., 57 Miller units for wt P1icdA without O₂). The 10-bp DRs are indicated by open boxes with an X representing a DR element for which the repressive activity has been eliminated by mutation, and asterisks denoting DRs that have been mutated towards consensus (see FIG. 1C). (A) Effects of mutations away from consensus within each DR element, assayed under anaerobic conditions (—O₂). (B) The effect of mutations towards consensus within each DR element, assayed under anaerobic conditions. The dotted line represents anaerobic ArcA-dependent repression of wt P1icdA. (C) The effect of mutations towards consensus within each DR element, assayed under aerobic conditions. […]
(§2) β-galactosidase assays—All strains were grown in MOPS minimal medium (Neidhardt et al., 1974) with 0.2% glucose at 37° C. and sparged with a gas mix of 95% N₂ and 5% CO₂ (anaerobic) or 70% N₂, 5% CO₂, and 25% O₂ (aerobic). […] Standard errors for data plotted as ‘fold repression’ were calculated using a propagation of standard error formula (Ku, J. Res. National Bureau of Standards 70C:263-273 (1966)).

The target of series [2] is T1, ArcA (chromosomal). In words: cell_activity; anaerobic. Here is the method: as §1, §2
The next series has as its target T2, ArcA D54E (Escherichia coli, UniProt P0A9Q1 P0A9Q1:1-238, D54E).
T2 sequence: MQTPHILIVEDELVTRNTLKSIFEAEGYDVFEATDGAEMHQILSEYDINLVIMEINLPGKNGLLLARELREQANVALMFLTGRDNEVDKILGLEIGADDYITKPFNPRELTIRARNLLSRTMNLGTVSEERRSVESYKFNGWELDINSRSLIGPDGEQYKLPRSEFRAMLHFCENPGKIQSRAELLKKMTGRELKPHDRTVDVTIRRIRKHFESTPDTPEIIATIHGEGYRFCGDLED
The experiment in a line: cell_activity; anaerobic; aerobic repression above wt ArcA. The source says: To test whether the enhanced repression of P₁idcdA with mutant ArcA binding sites is still dependent on phosphorylation, the aspartate residue at position 54 (site of phosphorylation) in the chromosomal copy of arcA was mutated to yield either alanine or glutamate, preventing phosphorylation from ArcB. The D54A variant reduced the repression of all P1icdA-lacZ constructs compared to that with the wt protein under both aerobic and anaerobic growth conditions (FIG. 5A). […] Thus, the elevated aerobic repression with the strengthened ArcA binding sites appears to result from increased occupancy of the small amount of ArcA-P likely present during aerobic conditions.
β-galactosidase assays—All strains were grown in MOPS minimal medium (Neidhardt et al., 1974) with 0.2% glucose at 37° C. and sparged with a gas mix of 95% N₂ and 5% CO₂ (anaerobic) or 70% N₂, 5% CO₂, and 25% O₂ (aerobic). Cells were harvested during mid-log growth (OD₆₀₀ of ˜0.3 on a Perkin Elmer Lambda 25 UV/Vis Spectrophotometer). […] Standard errors for data plotted as ‘fold repression’ were calculated using a propagation of standard error formula (Ku, J. Res. National Bureau of Standards 70C:263-273 (1966)).

Series [3] deals with T1, ArcA (chromosomal). The experiment in a line: cell_activity; anaerobic; aerobic 7-fold repression. On the procedure: as §1, §2
The target in series [4] is T1, ArcA (chromosomal). The experiment in a line: cell_activity; anaerobic; aerobic about 2.5-fold repression. On the procedure: as §1, §2
The target of series [5] is T1, ArcA (chromosomal). The experiment in a line: cell_activity; anaerobic; aerobic repression nearly the same, no longer O2 sensitive. Here is the method:
as §1, §2

Series [6] addresses T1, ArcA (chromosomal). The experiment in a line: cell_activity; aerobic; anaerobic repression similar to consensus DR3 alone. On the procedure:
as §1, §2

In series [7] the target is T1, ArcA (chromosomal). In words: cell_activity; anaerobic. On the procedure: P1icdA expression in the construct with a fourth DR element was about 18% higher in a ΔarcA background compared to the other strains tested (data not shown).
How ArcA binding to each DR element contributes to icdA repression was determined by measuring β-galactosidase activity produced from P1icdA-lacZ transcriptional fusions containing the GT-to-CA (5′-TGTTA-3′ to 5′-TCATA-3′) (SEQ ID NO:2; SEQ ID NO:4, respectively) mutations within each DR element under anaerobic conditions. […] P1izcdA was repressed 14-fold by ArcA (FIG. 3A). […]
β-galactosidase assays—All strains were grown in MOPS minimal medium (Neidhardt et al., 1974) with 0.2% glucose at 37° C. and sparged with a gas mix of 95% N₂ and 5% CO₂ (anaerobic) or 70% N₂, 5% CO₂, and 25% O₂ (aerobic). […] To terminate cell growth and any further protein synthesis, chloramphenicol (final concentration, 20 μg/ml) or tetracycline (final concentration, 10 μg/ml) was added, and cells were placed on ice until assayed for β-galactosidase activity (Miller J H (1972) Experiments in molecular genetics. [Cold Spring Harbor, N.Y.]: Cold Spring Harbor Laboratory). β-Galactosidase assays were repeated at least three times and fold repression was calculated by dividing the β-galactosidase activity of a ΔarcA strain by the activity of an arcA⁺ strain. […]
This is another data set of the same source.

For series [8], the target named is T3, ArcA-P (phosphorylated ArcA) (Escherichia coli, UniProt P0A9Q1 P0A9Q1:1-238).
T3 sequence: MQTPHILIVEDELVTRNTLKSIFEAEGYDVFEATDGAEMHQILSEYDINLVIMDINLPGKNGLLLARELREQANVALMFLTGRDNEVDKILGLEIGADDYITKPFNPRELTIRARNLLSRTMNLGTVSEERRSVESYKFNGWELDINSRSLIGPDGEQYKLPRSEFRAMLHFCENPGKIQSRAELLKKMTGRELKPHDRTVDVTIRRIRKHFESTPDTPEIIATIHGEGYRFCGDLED
In words: footprint; all four DRs protected; apparent affinity higher than wt; narrow range (<4-fold) of ArcA-P. Particulars: tags: His6 removed with TEV protease; phosphorylated with carbamyl phosphate; chain copies: 2 per two DR elements (inferred); label: 3' 32P (footprint). Here is the method: To determine whether adding a fourth DR element facilitates ArcA-P binding and increases the footprint length, a consensus DR element (5′-TGTTA-3′) (SEQ ID NO:2) was added at the same spacing (11 by center-to-center) to either the 3′ or the 5′ end of the three-DR ArcA binding site within the icdA promoter region and DNase I footprinting experiments were performed.
DNase I footprinting: icdA promoter fragments were isolated from pPK9476, pPK9477, pPK9908, pPK9909, pPK9913, pPK9914, and pPK15001 after digestion with XhoI and BamHI. Sequenase Version 2.0 (USB Scientific) was used to 3′ radiolabel the BamHI end of the fragment with [α-³²P]-dGTP (PerkinElmer). Labeled DNA fragments were isolated from a non-denaturing 5% acrylamide gel and were subsequently purified with Elutip-d™ columns (Schleicher and Schuell). ArcA was phosphorylated by incubating with 50 mM disodium carbamyl phosphate (Sigma Aldrich) in 50 mM Tris, pH 7.9, 150 mM NaCl, and 10 mM MgCl₂ for 1 hour at 30° C. (Lynch & Lin, J. Bacteria 178:6238-6249 (1996)) and immediately used in the binding assays. Footprinting assays were performed by incubating phosphorylated ArcA with labeled DNA (˜5 nM) for 10 minutes at 30° C. in 40 mM Tris (pH 7.9), 30 mM KCl, 100 μg/ml BSA and 1 mM DTT followed by the addition of 2 μg/ml DNase I (Worthington) for 30 seconds.

B1: icdA P1 wt (dsDNA)
DNA 1: AGAGCAATTTTTTGTTAATGATTTGTAATTGGCTTGTCAATACTACCCTATTGT
DNA 2: ACAATAGGGTAGTATTGACAAGCCAATTACAAATCATTAACAAAAAATTGCTCT
In the series with ArcA (chromosomal) [1], B1 yielded an activity of 14 fold repression.

B2: icdA P1 DR2 A->T, DR3 GT->CA (dsDNA)
DNA 1: AGAGCAATTTTTTGTTAATGATTTGTTATTGGCTTCACAATACTACCCTATTGT
DNA 2: ACAATAGGGTAGTATTGTGAAGCCAATAACAAATCATTAACAAAAAATTGCTCT
Turning to B2, in the series with ArcA (chromosomal) [2], the activity is 3 fold reduction in repression vs DR2 A->T.

B3: icdA P1 DR3 C->T (dsDNA)
DNA 1: AGAGCAATTTTTTGTTAATGATTTGTAATTGGCTTGTTAATACTACCCTATTGT
DNA 2: ACAATAGGGTAGTATTAACAAGCCAATTACAAATCATTAACAAAAAATTGCTCT
For B3, the activity is 2 fold reduction in repression vs wt ArcA with ArcA D54E and 6 fold increase in repression vs wt with ArcA (chromosomal) [3].

B4: icdA P1 DR2 A->T (dsDNA)
DNA 1: AGAGCAATTTTTTGTTAATGATTTGTTATTGGCTTGTCAATACTACCCTATTGT
DNA 2: ACAATAGGGTAGTATTGACAAGCCAATAACAAATCATTAACAAAAAATTGCTCT
B4: the activity in the series with ArcA (chromosomal) [4] is 3 fold increase in repression vs wt.

B5: icdA P1 5' DR4 (dsDNA)
DNA 1: ATGTTAATTTTTTGTTAATGATTTGTAATTGGCTTGTCAATACTACCCTATTGT
DNA 2: ACAATAGGGTAGTATTGACAAGCCAATTACAAATCATTAACAAAAAATTAACAT
With B5, the activity with ArcA (chromosomal) [5] was 8 fold increase in repression vs wt.

B6: icdA P1 DR2 A->T, DR3 C->T (dsDNA)
DNA 1: AGAGCAATTTTTTGTTAATGATTTGTTATTGGCTTGTTAATACTACCCTATTGT
DNA 2: ACAATAGGGTAGTATTAACAAGCCAATAACAAATCATTAACAAAAAATTGCTCT
Turning to B6, the activity in the series with ArcA (chromosomal) [6] worked out at 21 fold repression.

B7: icdA P1 DR3 GT->CA (dsDNA)
DNA 1: AGAGCAATTTTTTGTTAATGATTTGTAATTGGCTTCACAATACTACCCTATTGT
DNA 2: ACAATAGGGTAGTATTGTGAAGCCAATTACAAATCATTAACAAAAAATTGCTCT
Regarding B7, in the series with ArcA (chromosomal) [7], the activity was ~3.5 fold loss in repression vs wt.

B8: icdA P1 3' DR4 (dsDNA)
DNA 1: AGAGCAATTTTTTGTTAATGATTTGTAATTGGCTTGTCAATACTATGTTATTGT
DNA 2: ACAATAACATAGTATTGACAAGCCAATTACAAATCATTAACAAAAAATTGCTCT
As for B8, the binding result in series [8] was “binds”.
